Experimental findings from the supplement of paper PMC5998384 are described below.

Series [1] deals with HeLa Kyoto. The experiment in a line: melting temperature (median over replicates), in situ; higher = more thermally stable.
Series [2] relates to HeLa Kyoto. Put plainly: solubility in G1/S (NP-40 vs SDS abundance) (log2 ratio); higher = more soluble. Particulars: cell cycle stage: G1/S.
For series [3], the system named is HeLa Kyoto. Put plainly: solubility change mitosis vs G1/S (difference of NP-40 vs SDS log2 ratios) (log2 ratio difference); higher = more soluble in mitosis.
Series [4] has as its system HeLa Kyoto. The experiment in a line: thermal stability score vs G1/S (z-score of summed log2 fold changes over temperatures); higher = more thermally stable than in G1/S.
The mark [5] stands for this setting: cell cycle stage: early G1 (4.5 h after nocodazole release).
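For melting temperature (median over replicates), in situ in this document: HeLa Kyoto cells synchronized by double thymidine or nocodazole block, proteins quantified by TMT10plex mass spectrometry, three independent biological replicates.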
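For solubility change mitosis vs G1/S (difference of NP-40 vs SDS log2 ratios) in this document: synchronized HeLa Kyoto cells (double thymidine block for G1/S, nocodazole release for mitosis), protein amounts in NP-40 versus SDS lysates quantified by mass spectrometry, three biological replicates.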
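For solubility in G1/S (NP-40 vs SDS abundance) in this document: HeLa Kyoto cells arrested at G1/S by double thymidine block, proteins quantified by TMT10plex mass spectrometry in mild NP-40 versus SDS extracts, three biological replicates.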
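For thermal stability score vs G1/S (z-score of summed log2 fold changes over temperatures) in this document: synchronized HeLa Kyoto cells, proteins quantified by TMT10plex mass spectrometry, three biological replicates, mitosis taken 0.5 h after nocodazole release, G1/S directly after double thymidine block.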

Sequence of CLIC4 (chain, as listed by the source): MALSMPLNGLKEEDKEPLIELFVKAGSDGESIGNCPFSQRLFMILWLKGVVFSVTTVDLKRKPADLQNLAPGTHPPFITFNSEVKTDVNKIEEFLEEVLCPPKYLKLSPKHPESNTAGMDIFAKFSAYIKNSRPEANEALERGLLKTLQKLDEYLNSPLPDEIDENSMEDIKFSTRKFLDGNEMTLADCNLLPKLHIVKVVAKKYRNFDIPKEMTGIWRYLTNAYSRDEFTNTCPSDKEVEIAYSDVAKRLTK

Take “MVQLRPRASRAPASAEAMVDEGQLASEEEEAEHGLLLGQPSSGAAAEPLEEDEEGDDEFDDEAPEELTFASAQAEAREEERRVRETVRRDKTLLKEKRKRREELFIEQKKRKLLPDTILEKLTTASQTNIKKSPGKVKEVNLQKKNEDCEKGNDSKKVKVQKVQSVSQNKSYLAVRLKDQDLRDSRQQAAQAFIHNSLYGPGTNRTTVNKFLSLANKRLPVKRAAVQFLNNAWGIQKKQNAKRFKRRWMVRKMKTKK [NOL7]”: the melting temperature was 56.9 °C in the series with HeLa Kyoto [1] (cell cycle stage: G1/S) and 54 °C with HeLa Kyoto [1] (cell cycle stage: mitosis). Further, in the series with HeLa Kyoto [2], the “solubility in G1/S (log2)” value is -1.02. Besides, the “solubility change mitosis (log2)” value in the series with HeLa Kyoto [3] amounted to 0.763. Besides, the thermal stability score is -0.722 in the series with HeLa Kyoto [4] (setting [5]) and -4.23 in the series on HeLa Kyoto [4] (cell cycle stage: mitosis).
Regarding “MAAPRVFPLSCAVQQYAWGKMGSNSEVARLLASSDPLAQIAEDKPYAELWMGTHPRGDAKILDNRISQKTLSQWIAENQDSLGSKVKDTFNGNLPFLFKVLSVETPLSIQAHPNKELAEKLHLQAPQHYPDANHKPEMAIALTPFQGLCGFRPVEEIVTFLKKVPEFQFLIGDEAATHLKQTMSHDSQAVASSLQSCFSHLMKSEKKVVVEQLNLLVKRISQQAAAGNNMEDIFGELLLQLHQQYPGDIGCFAIYFLNLLTLKPGEAMFLEANVPHAYLKGDCVECMACSDNTVRAGLTPKFIDVPTLCEMLSYTPSSSKDRLFLPTRSQEDPYLSIYDPPVPDFTIMKTEVPGSVTEYKVLALDSASILLMVQGTVIASTPTTQTPIPLQRGGVLFIGANESVSLKLTEPKDLLIFRACCLL [MPI]”, the results for the melting temperature in the series on HeLa Kyoto [1] (cell cycle stage: G1/S) and with HeLa Kyoto [1] (cell cycle stage: mitosis) were 50.7 °C and 50.4 °C, respectively. Moreover, the “solubility in G1/S (log2)” value with HeLa Kyoto [2] stood at 0.389. The “solubility change mitosis (log2)” value with HeLa Kyoto [3] was -0.154. Further, the thermal stability score with HeLa Kyoto [4] (setting [5]) is -0.708; in the series with HeLa Kyoto [4] (cell cycle stage: mitosis), -0.365.
In the case of “METLSFPRYNVAEIVIHIRNKILTGADGKNLTKNDLYPNPKPEVLHMIYMRALQIVYGIRLEHFYMMPVNSEVMYPHLMEGFLPFSNLVTHLDSFLPICRVNDFETADILCPKAKRTSRFLSGIINFIHFREACRETYMEFLWQYKSSADKMQQLNAAHQEALMKLERLDSVPVEEQEEFKQLSDGIQELQQSLNQDFHQKTIVLQEGNSQKKSNISEKTKRLNELKLSVVSLKEIQESLKTKIVDSPEKLKNYKEKMKDTVQKLKNARQEVVEKYEIYGDSVDCLPSCQLEVQLYQKKIQDLSDNREKLASILKESLNLEDQIESDESELKKLKTEENSFKRLMIVKKEKLATAQFKINKKHEDVKQYKRTVIEDCNKVQEKRGAVYERVTTINQEIQKIKLGIQQLKDAAEREKLKSQEIFLNLKTALEKYHDGIEKAAEDSYAKIDEKTAELKRKMFKMST [NUF2]”, the melting temperature with HeLa Kyoto [1] (cell cycle stage: G1/S) turned out to be 48.2 °C; in the series with HeLa Kyoto [1] (cell cycle stage: mitosis) it was 48.1 °C. Besides, the “solubility in G1/S (log2)” value in the series on HeLa Kyoto [2] was -0.0908. For the same substance, the “solubility change mitosis (log2)” value in the series with HeLa Kyoto [3] was -0.0858. The values for the thermal stability score in the series on HeLa Kyoto [4] (setting [5]) and with HeLa Kyoto [4] (cell cycle stage: mitosis) were 0.86 and 1.16, respectively.
As to CLIC4, the results for the melting temperature in the series with HeLa Kyoto [1] (cell cycle stage: G1/S) and in the series with HeLa Kyoto [1] (cell cycle stage: mitosis) were 52.1 °C and 52.5 °C, respectively. Also, the “solubility in G1/S (log2)” value in the series on HeLa Kyoto [2] is 0.409. Moreover, in the series with HeLa Kyoto [3], the “solubility change mitosis (log2)” value is -0.146. Also, the thermal stability score was -0.344 with HeLa Kyoto [4] (setting [5]) and 0.497 in the series with HeLa Kyoto [4] (cell cycle stage: mitosis).
In the case of “MEFLKTCVLRRNACTAVCFWRSKVVQKPSVRRISTTSPRSTVMPAWVIDKYGKNEVLRFTQNMMMPIIHYPNEVIVKVHAASVNPIDVNMRSGYGATALNMKRDPLHVKIKGEEFPLTLGRDVSGVVMECGLDVKYFKPGDEVWAAVPPWKQGTLSEFVVVSGNEVSHKPKSLTHTQAASLPYVALTAWSAINKVGGLNDKNCTGKRVLILGASGGVGTFAIQVMKAWDAHVTAVCSQDASELVRKLGADDVIDYKSGSVEEQLKSLKPFDFILDNVGGSTETWAPDFLKKWSGATYVTLVTPFLLNMDRLGIADGMLQTGVTVGSKALKHFWKGVHYRWAFFMASGPCLDDIAELVDAGKIRPVIEQTFPFSKVPEAFLKVERGHARGKTVINVV [RTN4IP1]”, the melting temperature came out at 50.7 °C in the series on HeLa Kyoto [1] (cell cycle stage: G1/S) and 51.7 °C in the series on HeLa Kyoto [1] (cell cycle stage: mitosis). Moreover, in the series with HeLa Kyoto [2], the “solubility in G1/S (log2)” value is -0.119. In addition, in the series with HeLa Kyoto [3], the “solubility change mitosis (log2)” value is -0.0156. The results for the thermal stability score in the series with HeLa Kyoto [4] (setting [5]) and with HeLa Kyoto [4] (cell cycle stage: mitosis) were 0.632 and 1.04, respectively.
In the case of “MAVVIRLQGLPIVAGTMDIRHFFSGLTIPDGGVHIVGGELGEAFIVFATDEDARLGMMRTGGTIKGSKVTLLLSSKTEMQNMIELSRRRFETANLDIPPANASRSGPPPSSGMSSRVNLPTTVSNFNNPSPSVVTATTSVHESNKNIQTFSTASVGTAPPNMGASFGSPTFSSTVPSTASPMNTVPPPPIPPIPAMPSLPPMPSIPPIPVPPPVPTLPPVPPVPPIPPVPSVPPMTPLPPMSGMPPLNPPPVAPLPAGMNGSGAPMNLNNNLNPMFLGPLNPVNPIQMNSQSSVKPLPINPDDLYVSVHGMPFSAMENDVRDFFHGLRVDAVHLLKDHVGRNNGNGLVKFLSPQDTFEALKRNRMLMIQRYVEVSPATERQWVAAGGHITFKQNMGPSGQTHPPPQTLPRSKSPSGQKRSRSRSPHEAGFCVYLKGLPFEAENKHVIDFFKKLDIVEDSIYIAYGPNGKATGEGFVEFRNEADYKAALCRHKQYMGNRFIQVHPITKKGMLEKIDMIRKRLQNFSYDQREMILNPEGDVNSAKVCAHITNIPFSITKMDVLQFLEGIPVDENAVHVLVDNNGQGLGQALVQFKNEDDARKSERLHRKKLNGREAFVHVVTLEDMREIEKNPPAQGKKGLKMPVPGNPAVPGMPNAGLPGVGLPSAGLPGAGLPSTGLPGSAITSAGLPGAGMPSAGIPSAGGEEHAFLTVGSKEANNGPPFNFPGNFGGSNAFGPPIPPPGLGGGAFGDARPGMPSVGNSGLPGLGLDVPGFGGGPNNLSGPSGFGGGPQNFGNGPGSLGGPPGFGSGPPGLGSAPGHLGGPPAFGPGPGPGPGPGPIHIGGPPGFASSSGKPGPTVIKVQNMPFTVSIDEILDFFYGYQVIPGSVCLKYNEKGMPTGEAMVAFESRDEATAAVIDLNDRPIGSRKVKLVLG [RBM12]”, the melting temperature in the series with HeLa Kyoto [1] (cell cycle stage: G1/S) is 48.7 °C; in the series with HeLa Kyoto [1] (cell cycle stage: mitosis) it was 49.2 °C. For the same substance, in the series on HeLa Kyoto [2], the “solubility in G1/S (log2)” value is 0.344. Besides, the “solubility change mitosis (log2)” value in the series on HeLa Kyoto [3] was -0.147. For the same substance, the thermal stability score was found to be 1.03 in the series with HeLa Kyoto [4] (setting [5]) and 4.25 with HeLa Kyoto [4] (cell cycle stage: mitosis).
